We go through one molecule from publication PMC7695701, “Mechanism and inhibition of Streptococcus pneumoniae IgA1 protease” (Nature Communications, 2020).

This assay concerns the target T1, S. pneumoniae IgA1 protease catalytic region (IgA1P residues 665–1963), wild type (Streptococcus pneumoniae, UniProt Q59947).
T1 construct: Streptococcus pneumoniae IgA1 protease (M26 metalloprotease), catalytic region, residues 665-1963 of UniProt Q59947 / NCBI WP_000417171 (D39 and R6 strains); Thrombin cleavage site between MBP and IgA1P; also called IgA1P 665–1963; not shown: MBP, N-terminal, cleaved
The experiment in a line: cryo-EM structure; wild type IgA1P (residues 665-1963) with the mAb #2 Fab fragment; same procedure as for the IgA1 complex but in the absence of EDTA; 20 mM HEPES, pH 7.4, 150 mM NaCl. As to conditions: both partners purified.

T1 sequence (Q59947 665-1963): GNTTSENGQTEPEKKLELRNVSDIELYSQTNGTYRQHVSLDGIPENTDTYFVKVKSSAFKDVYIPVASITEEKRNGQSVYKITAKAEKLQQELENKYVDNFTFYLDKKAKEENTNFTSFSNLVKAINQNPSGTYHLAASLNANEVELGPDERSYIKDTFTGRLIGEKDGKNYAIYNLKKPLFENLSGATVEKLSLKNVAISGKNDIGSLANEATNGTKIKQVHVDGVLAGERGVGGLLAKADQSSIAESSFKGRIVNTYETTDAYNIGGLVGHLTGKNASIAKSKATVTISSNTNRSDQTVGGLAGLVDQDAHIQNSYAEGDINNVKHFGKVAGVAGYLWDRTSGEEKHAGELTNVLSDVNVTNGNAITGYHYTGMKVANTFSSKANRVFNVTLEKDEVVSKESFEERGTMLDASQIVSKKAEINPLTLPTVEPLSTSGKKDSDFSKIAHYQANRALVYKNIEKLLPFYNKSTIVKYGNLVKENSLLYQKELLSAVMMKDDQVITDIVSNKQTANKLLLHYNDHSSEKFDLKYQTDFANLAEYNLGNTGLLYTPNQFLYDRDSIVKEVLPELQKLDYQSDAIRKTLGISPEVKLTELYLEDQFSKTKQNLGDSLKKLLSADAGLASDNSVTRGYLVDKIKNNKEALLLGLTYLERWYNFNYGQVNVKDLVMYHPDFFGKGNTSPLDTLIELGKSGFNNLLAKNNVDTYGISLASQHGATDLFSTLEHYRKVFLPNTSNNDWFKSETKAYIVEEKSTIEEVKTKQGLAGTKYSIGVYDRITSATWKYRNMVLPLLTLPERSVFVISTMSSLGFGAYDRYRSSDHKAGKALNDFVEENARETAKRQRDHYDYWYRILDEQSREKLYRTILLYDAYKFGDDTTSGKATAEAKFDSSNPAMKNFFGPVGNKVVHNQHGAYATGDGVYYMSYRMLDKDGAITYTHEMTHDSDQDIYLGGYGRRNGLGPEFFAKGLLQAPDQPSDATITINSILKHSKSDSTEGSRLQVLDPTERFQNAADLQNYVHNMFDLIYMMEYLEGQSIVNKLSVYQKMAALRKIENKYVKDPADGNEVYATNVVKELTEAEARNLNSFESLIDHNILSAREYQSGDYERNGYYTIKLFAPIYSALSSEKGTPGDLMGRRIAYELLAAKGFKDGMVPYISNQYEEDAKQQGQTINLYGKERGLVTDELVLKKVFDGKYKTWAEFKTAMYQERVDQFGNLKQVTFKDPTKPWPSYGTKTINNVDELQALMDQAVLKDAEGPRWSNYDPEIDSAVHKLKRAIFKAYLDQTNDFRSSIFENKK

B1: mAb #2 Fab fragment (neutralizing murine monoclonal antibody against IgA1P) (Fab, V domains shown)
VH: EVQLQQSGPELEKPGASMKISCKASGYSFTGYNMNWVKQSNGKSLEWIGSIDPYTGGSNYNQKFMGKATLTVDKSSSTAYMQLKSLTSEDSAVYYCATVVGRVYAMDYWGQGTSVTVSS
VL: EEVLTQSPAIMSASPGEKVTMTCSASSSVSYIHWYQQKSNTSPKLWIYATSKLASGVPGRFSGSGSGNSYSLTISSMEAEDVATYYCFQGSGYPFTFGSGTKLEIK
notes: PDB 3RHW named as the most similar heavy chain; PDB 4HXA named as the most similar light chain; Raised against purified full-length protease; also called neutralizing mAb Fab fragment; source: hybridoma (Balb C mouse spleen cells fused with SP2/0 myeloma cells), IgG purified on Protein G columns; Fab excised with immobilized Ficin
On to B1, for which the binding result is “binds”.
